# Results taken from patent US8822645B2, “Prostaglandin E2 dual variable domain immunoglobulins and uses thereof” (AbbVie Inc., priority 2008, dated 2014).
# Assay: PGE2-biotinamide ELISA (PGE2 binding)
# Conditions: PGE2 VD in C-terminal position, read-out: Direct Bind ELISA C-terminal VD EC50
# Procedure, shortened: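 Antibody or DVD-Ig (1 µg/ml) captured on anti-host Fc IgG-coated plates for 1 h at room temperature, then titrated with PGE2-biotinamide serially diluted from 30 nM for 1 h. Binding detected with streptavidin-polyHRP and TMB, absorbance read at 450 nm; EC50 from the titration curve.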
molecule,measurement,value
DVD152: DVD-Ig construct listed in Table 4 (antibody) VH: EVQLQESGPGLVRPSQTLSLTCTVSGYSITSDHAWSWVRQPPGRGLEWIGYISYSGITTYNPSLKSRVTMLRDTSKNQFSLRLSSVTAADTAVYYCARSLARTTAMDYWGQGSLVTVSSASTKGPEVQLVQSGAEVKKPGASVKVSCKASGYTFTKYWLGWVRQAPGQGLEWMGDIYPGYDYTHYNEKFKDRVTLTTDTSTSTAYMELRSLRSDDTAVYYCARSDGSSTYWGQGTLVTVSS VL: DIQMTQSPSSLSASVGDRVTITCRASQDISSYLNWYQQKPGKAPKLLIYYTSRLHSGVPSRFSGSGSGTDFTFTISSLQPEDIATYYCQQGNTLPYTFGQGTKVEIKRTVAAPDVLMTQTPLSLPVTPGEPASISCTSSQNIVHSNGNTYLEWYLQKPGQSPQLLIYKVSNRFSGVPDRFSGSGSGTDFTLKISRVEAEDVGVYYCFQVSHVPYTFGGGTKVEIKR,EC50,1.65 nM
